Values joined by “and” are separate entries in the source; they are usually repeats but may differ in a detail not shown here. Identical values can stand only once.

Test [1] has as its target T1, マウスMMP9 (mouse, UniProt P41245 20-730, limits assumed).
T1 construct: The immunogen for AB0046 was a pro/catalytic domain fragment of mouse MMP9; also called mouse MMP9
Description: binding test (Table 2, not shown).

Test [2] deals with T2, ヒトMMP9 (human, UniProt P14780 20-707, limits assumed).
T2 construct: also called human MMP9; ゼラチナーゼ−B
T2 sequence (P14780 20-707 Q279R/R574P limits assumed): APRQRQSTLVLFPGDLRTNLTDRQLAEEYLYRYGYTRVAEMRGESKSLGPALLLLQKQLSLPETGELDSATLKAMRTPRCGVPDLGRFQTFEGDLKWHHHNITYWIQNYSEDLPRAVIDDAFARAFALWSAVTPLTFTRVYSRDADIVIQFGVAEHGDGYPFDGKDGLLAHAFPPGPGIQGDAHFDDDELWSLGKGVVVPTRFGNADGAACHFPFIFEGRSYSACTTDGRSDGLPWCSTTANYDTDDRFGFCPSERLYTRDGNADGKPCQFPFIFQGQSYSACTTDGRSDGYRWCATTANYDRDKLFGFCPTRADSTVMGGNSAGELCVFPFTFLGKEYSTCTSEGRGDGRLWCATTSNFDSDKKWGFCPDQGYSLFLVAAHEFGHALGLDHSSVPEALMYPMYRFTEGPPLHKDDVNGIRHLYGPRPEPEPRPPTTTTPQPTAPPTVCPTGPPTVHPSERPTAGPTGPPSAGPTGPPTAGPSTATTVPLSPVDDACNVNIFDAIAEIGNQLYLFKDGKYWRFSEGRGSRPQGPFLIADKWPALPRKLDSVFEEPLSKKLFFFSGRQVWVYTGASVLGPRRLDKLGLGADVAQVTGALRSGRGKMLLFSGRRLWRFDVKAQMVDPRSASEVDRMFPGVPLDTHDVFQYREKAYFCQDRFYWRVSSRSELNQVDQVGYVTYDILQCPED
Description: SPR.

The target of test [3] is T2, ヒトMMP9. As to the kind of experiment: cell-based or functional assay.
Test [4] has as its target T3, カニクイザルMMP9 (cynomolgus monkey, UniProt A0A2K5UU71 20-706).
T3 construct: also called cynomolgus MMP9; 組換えカニクイザルMMP9
T3 sequence (A0A2K5UU71 entry or part of it): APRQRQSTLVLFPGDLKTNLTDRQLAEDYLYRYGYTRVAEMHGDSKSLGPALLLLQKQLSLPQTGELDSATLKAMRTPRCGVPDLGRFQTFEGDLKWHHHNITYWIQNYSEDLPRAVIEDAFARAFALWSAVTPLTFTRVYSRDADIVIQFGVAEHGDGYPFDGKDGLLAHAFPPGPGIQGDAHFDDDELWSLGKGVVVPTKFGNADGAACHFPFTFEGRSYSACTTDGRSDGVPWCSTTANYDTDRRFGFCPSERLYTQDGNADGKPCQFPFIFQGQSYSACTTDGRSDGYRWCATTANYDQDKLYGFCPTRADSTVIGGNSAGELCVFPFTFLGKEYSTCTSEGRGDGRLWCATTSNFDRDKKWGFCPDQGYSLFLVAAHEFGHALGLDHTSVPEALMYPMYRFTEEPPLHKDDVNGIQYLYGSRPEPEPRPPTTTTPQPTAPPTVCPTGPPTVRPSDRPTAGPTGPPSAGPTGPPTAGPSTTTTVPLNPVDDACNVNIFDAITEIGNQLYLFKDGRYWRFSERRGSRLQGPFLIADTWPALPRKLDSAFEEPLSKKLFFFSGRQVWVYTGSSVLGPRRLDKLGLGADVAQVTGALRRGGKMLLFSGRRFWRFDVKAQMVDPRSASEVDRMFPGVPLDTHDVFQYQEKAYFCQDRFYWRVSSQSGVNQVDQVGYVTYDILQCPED
As to the kind of experiment: ELISA.

The target in test [5] is T4, ラットMMP9 (rat, UniProt P50282 20-708, limits assumed).
T4 construct: also called rat MMP9; 組換えラットMMP9
T4 sequence (P50282 20-708 limits assumed): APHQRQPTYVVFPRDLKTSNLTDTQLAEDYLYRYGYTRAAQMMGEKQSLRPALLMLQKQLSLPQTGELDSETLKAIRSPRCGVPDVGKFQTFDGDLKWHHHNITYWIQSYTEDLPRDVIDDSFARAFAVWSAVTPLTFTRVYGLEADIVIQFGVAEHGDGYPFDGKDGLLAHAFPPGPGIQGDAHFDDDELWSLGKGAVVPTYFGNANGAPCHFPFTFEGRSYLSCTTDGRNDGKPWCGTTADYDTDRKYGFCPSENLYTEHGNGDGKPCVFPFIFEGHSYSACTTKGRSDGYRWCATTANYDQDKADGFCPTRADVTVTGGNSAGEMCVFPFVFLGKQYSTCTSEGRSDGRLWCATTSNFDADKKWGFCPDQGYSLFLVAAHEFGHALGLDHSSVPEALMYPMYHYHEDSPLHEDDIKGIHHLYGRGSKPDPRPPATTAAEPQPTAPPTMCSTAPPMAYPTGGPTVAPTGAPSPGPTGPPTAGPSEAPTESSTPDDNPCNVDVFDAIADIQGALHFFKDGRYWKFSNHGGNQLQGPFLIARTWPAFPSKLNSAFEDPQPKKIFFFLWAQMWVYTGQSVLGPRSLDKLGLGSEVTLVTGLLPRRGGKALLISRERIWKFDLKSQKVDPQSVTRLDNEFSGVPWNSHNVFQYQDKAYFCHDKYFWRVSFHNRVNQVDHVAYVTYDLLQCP
Description: ELISA.

Test [6] has as its target T1, マウスMMP9. As to the kind of experiment: cell-based or functional assay.
Test [7] has as its target T1, マウスMMP9. As to the kind of experiment: ELISA.
Test [8] addresses T2, ヒトMMP9. As to the kind of experiment: direct binding assay and SPR.
For test [9], the target named is T2, ヒトMMP9. As to the kind of experiment: ELISA.

T1 sequence (P41245 20-730 limits assumed): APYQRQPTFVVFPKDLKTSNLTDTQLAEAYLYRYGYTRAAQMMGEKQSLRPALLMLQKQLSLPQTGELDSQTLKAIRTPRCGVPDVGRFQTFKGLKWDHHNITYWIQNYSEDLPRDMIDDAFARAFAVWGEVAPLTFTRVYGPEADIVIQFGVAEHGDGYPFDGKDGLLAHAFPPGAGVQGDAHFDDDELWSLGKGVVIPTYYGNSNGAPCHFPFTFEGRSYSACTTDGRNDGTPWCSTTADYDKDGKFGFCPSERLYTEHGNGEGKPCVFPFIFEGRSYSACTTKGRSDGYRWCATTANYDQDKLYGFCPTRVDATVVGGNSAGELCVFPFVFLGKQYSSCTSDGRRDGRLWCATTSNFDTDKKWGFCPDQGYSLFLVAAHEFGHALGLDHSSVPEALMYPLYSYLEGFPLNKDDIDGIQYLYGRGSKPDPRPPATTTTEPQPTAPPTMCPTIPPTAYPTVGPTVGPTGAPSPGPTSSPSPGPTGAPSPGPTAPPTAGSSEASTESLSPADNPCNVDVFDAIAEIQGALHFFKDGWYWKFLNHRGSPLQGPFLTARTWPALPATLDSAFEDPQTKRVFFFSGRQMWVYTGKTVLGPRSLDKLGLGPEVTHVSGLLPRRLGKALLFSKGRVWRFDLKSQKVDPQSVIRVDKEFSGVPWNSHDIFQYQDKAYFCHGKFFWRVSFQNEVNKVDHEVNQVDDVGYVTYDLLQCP

B1: マウスモノクローナル抗MMP9抗体(AB0041) (antibody, mouse IgG2b, V domains shown)
VH: QVQLKESGPGLVAPSQSLSITCTVSGFSLLSYGVHWVRQPPGKGLEWLGVIWTGGTTNYNSALMSRLSISKDDSKSQVFLKMNSLQTDDTAIYYCARYYYGMDYWGQGTSVTVSS
VL: DIVMTQSHKFMSTSVGDRVSITCKASQDVRNTVAWYQQKTGQSPKLLIYSSSYRNTGVPDRFTGSGSGTDFTFTISSVQAEDLAVYFCQQHYITPYTFGGGTKLEIK
notes: also called AB0041; AB0041抗体
Take B1: the binding result in [1] is “no binding”. The Kd is 0.4 pM in [2], under 400 pM in [4] and under 400 pM in test [5]. For the same molecule, the “IC50, MMP9-mediated cleavage of fluorogenic peptide substrate Mca-PLGL-Dpa-AR-NH2” value (from here on “IC50, MMP9-mediated cleavage”) in [3] was found to be 0.569 nM.

B2: マウス抗体AB0046 (antibody, V domains shown)
VH: QVQLQQPGSVLVRPGASVKLSCTASGYTFTSYWMNWVKQRPGQGLEWIGEIYPISGRTNYNEKFKVKATLTVDTSSSTAYMDLNSLTSEDSAVYYCARSRANWDDYWGQGTTLTVSS
VL: DIQMTQTTSSLSASLGDRVTISCSASQGISNYLNWYQQKPDGTFKLLIYYTSILHSGVPSRFSGSGSGTDYSLTISNLEPEDIATYYCQQYGWLPRTFGGGTKLEIKR
notes: Mouse IgG1/kappa anti-mouse MMP9 antibody; also called AB0046; AB0046抗体
Consider B2, for which the “IC50, MMP9-mediated cleavage” value in [6] was 0.352 nM. This molecule also gave a Kd in [7] of 218 pM.

B3: ヒト化変異体抗MMP9抗体AB0045(ヒト化、改変IgG4(S241P)) (antibody, V domains shown)
VH: QVQLQESGPGLVKPSETLSLTCTVSGFSLLSYGVHWVRQPPGKGLEWLGVIWTGGTTNYNSALMSRFTISKDDSKNTVYLKMNSLKTEDTAIYYCARYYYGMDYWGQGTLVTVSS
VL: DIQMTQSPSSLSASVGDRVTITCKASQDVRNTVAWYQQKPGKAPKLLIYSSSYRNTGVPDRFSGSGSGTDFTLTISSLQAEDVAVYYCQQHYITPYTFGGGTKVEIKR
notes: also called AB0045; AB0045抗体
Take B3: the Kd in test [8] is about 1 pM; in [2] it was 8.8 pM; in test [4] it was under 400 pM; in [5], under 400 pM; in test [9] it was < 400 pM and 168 pM. Also, in test [3], the “IC50, MMP9-mediated cleavage” value came out at 0.691 nM.

Values taken from patent JP2016106147A (dated 2016).
